This passage reports ratio to parent results from paper PMC4643051.

The labels stand for the following.
B1: unnamed (parent)
chain 1: DSGCVVSWKNKELKCGSGIFITDNVHTWTEQYKFQPESPSKLASAIQKAHEEGICGIRSVTRLENLMWKQITPELNHILSENEVKLTIMTGDIKGIMQAGKRSLRPQPTELKYSWKTWGKAKMLSTESHNQTFLIDGPETAECPNTNRAWNSLEVEDYGFGVFTTNIWLKLKEKQDVFCDSKLMSAAIKDNRAVHADMGYWIESALNDTWKIEKASFIEVKNCHWPKSHTLWSNGVLESEMIIPKNLAGPVSQHNYRPGYHTQITGPWHLGKLEMDFDFCDGTTVVVTEDCGNRGPSLRTTTASGKLITEWCCRSCTLPPLRYRGEDGCWYGMEIRPLKEKEENLVNSLVTA
chain 2: FHLTTRNGEPHMIVSRQEKGKSLLFKTEDGVNMCTLMAMDLGELCEDTITYKCPLLRQNEPEDIDCWCNSTSTWVTYGTCTTMGEHRRQKRSVALVPHVGMGLETRTETWMSSEGAWKHVQRIETWILRHPGFTMMAAILAYTIGTTHFQRALIFILLTAVTPSMT

In the test the parent is B1. To be noted: with partner chain of the complex shown;; read off a plot.
On to chain 1 T117A, for which the ratio to parent was 1.5 fold of WT.
For chain 1 W115A, the ratio to parent was 0.45 fold of WT.
chain 1 S114A: the ratio to parent is 0.27 fold of WT.
With chain 1 D180A, the ratio to parent is 1.5 fold of WT.
On to chain 1 T301A, for which the ratio to parent was 1.7 fold of WT.
